Assay results taken from US11278600B2, “Human alpha-galactosidase variants” (Codexis, Inc., priority 2014, dated 2022).
Residue numbers refer to the chain shown, from its start. Names and notes keep the numbering of the source.

B1: Variant 218: GLA variant; M322I/E367N/R373K relative to SEQ ID NO: 10 (protein)
chain: LDNGLARTPTMGWLHWERFMCNLDCQEEPDSCISEKLFMEMAELMVSEGWKDAGYEYLCIDDCWMAPQRDSEGRLQADPQRFPHGIRQLANYVHSKGLKLGIYADVGNKTCAGFPGSFGYYDIDAQTFADWGVDLLKFDGCYCDSLENLADGYKHMSLALNRTGRSIVYSCEWPLYMWPFQKPNYTEIRQYCNHWRNFADIDDSWASIKSILDWTSFNQERIVDVAGPGGWNDPDMLVIGNFGLSWNQQVTQMALWAIMAAPLFMSNDLRHISPQAKALLQDKDVIAINQDPLGKQGYQLRQGDNFEVWERPLSGLAWAVAIINRQEIGGPRSYTIAVASLGKGVACNPACFITQLLPVKRKLGFYNWTSRLKSHINPTGTVLLQLENTMQMSLKDLL
modifications: Synthetic Polypeptide sequence of Variant No. 218
B2: Variant 402: GLA variant; polypeptide sequence of SEQ ID NO: 42 (protein)
chain: B1 chain with L44R, S166P, F217R, N247D, Q302K, L316D, A337P, K362Q
modifications: Synthetic Polypeptide sequence of Variant No. 402

Key:
[1] = Thermostability of GLA variants expressed in HEK293T cells; format: biochemical; conditions: HEK293T supernatants; 30-54° C. for 1 h; residual MUGal activity
[2] = Activity on alternative substrate NBD-GB3 (TLC); format: biochemical; conditions: HEK293T culture supernatant, pH 4.8, 37° C., 1 h
Experimental: To confirm that improved activity in MUGal hydrolysis corresponded to more native substrates, mammalian cell-expressed GLA variants were assayed using N-Dodecanoyl-NBD-ceramide trihexoside (NBD-GB3) as substrate. HEK293T culture supernatant (10 μL), 100 mM sodium citrate pH 4.8 (80 μL), and NBD-GB3 (0.1 mg/ml) in 10% ethanol (10 μL) were added to microcentrifuge tubes. Samples were inverted to mix, and incubated at 37° C. for 1 h. The reaction was quenched via addition of 50 μL, methanol, diluted with 100 μL, chloroform, vortexed and the organic layer was isolated for analysis. The organic phase (10 μL) was spotted onto a silica plate and analyzed by thin layer chromatography (chloroform:methanol:water, 100:42:6), detecting the starting material and product using a 365 nm UV lamp.

[3] = pH stability of purified GLA variants over time; format: biochemical; conditions: purified enzyme; McIlvaine buffer pH 4.1 or 7.5, 0-24 h at 37° C.
Experimental: (§1) GLA variants were purified from mammalian culture supernatant essentially as known in the art (See, Yasuda et al., Prot. Exp. Pur., 37, 499-506 [2004]). Concanavalin A resin (Sigma Aldrich) was equilibrated with 0.1 M sodium acetate, 0.1 M NaCl, 1 mM MgCl2, CaCl2, and MnCl2 pH 6.0 (Con A binding buffer). Supernatant was diluted 1:1 with binding buffer and loaded onto the column. The column was washed with 15 volumes of Concanavalin A binding buffer, and samples were eluted by the addition of Concanavalin A binding buffer including 0.9 M methyl-α-D-mannopyranoside and 0.9 M methyl-α-D-glucopyranoside. Eluted protein was concentrated and buffer exchanged three times using a Centricon® Plus-20 filtration unit with a 10 kDa molecular weight cut off (Millipore) into ThioGal binding buffer (25 mM citrate-phosphate, 0.1 M NaCl, pH 4.8). Buffer exchanged samples were loaded onto a Immobilized-D-galactose resin (Pierce) equilibrated with ThioGal binding buffer. […]
To confirm that purified GLA variants show the desired pH stability observed after expression in yeast, WT GLA (SEQ ID NO:5) and SEQ ID NO:42 were incubated in acidic or basic buffers and analyzed for residual activity. […] Samples were quenched with 100 μL, of 1 M sodium carbonate, diluted 1:4 in 1 M sodium carbonate and analyzed by fluorescence spectroscopy (Ex. 355, Em. 448).

[4] = Thermostability of purified GLA variants (Sypro Orange melting); format: physicochemical; conditions: purified enzyme 20 μg/ml in 1×PBS, 30 to 75° C. at 0.5° C./min
Experimental: as §1, with “buffer. The resin was washed with six volumes of ThioGal binding buffer and eluted with 25 mM citrate phosphate, 0.1 M NaCl, 0.1 M D-galactose, pH 5.5.” for “buffer.”
The thermostability of WT GLA (SEQ ID NO:5) and SEQ ID NO:42 were determined to assess their overall stability. […] The plates were heated from 30 to 75° C. at 0.5° C./min on a RT-PCR machine and Sypro Orange fluorescence was monitored. […]

[5] = Serum pharmacokinetics of purified GLA variants in rats; format: in vivo, Sprague-Dawley rats; conditions: rat, intravenous 1 mg/ml at 1 ml/kg; four hours post-administration
Experimental: Purified GLA variants produced as described in Example 4 were assessed for stability in the serum of live rats. WT GLA (SEQ ID NO:5) or SEQ ID NO:42 at 1 mg/ml were administered intravenously at 1 ml/kg to three naïve jugular vein cannulated Sprague-Dawley rats (7-8 weeks old) each. Prior to administration and at 5, 15, 30, 60, 120, and 240 minutes post-administration, […] was collected from each rat in an EDTA tube and centrifuged at 4° C. and 6000 rpm to generate >80 μL of serum per sample. Samples were frozen and stored on dry ice prior to analysis. For analysis, serum (10 μL) was added to 40 μL of 5 mM MUGal in McIlvaine buffer pH 4.4, and incubated at 37° C. for 1 h. Samples were quenched with 50 μL of 1 M sodium carbonate, diluted 1:100 in 1 M sodium carbonate and analyzed by fluorescence spectroscopy (Ex. 355, Em. 448). Four hours post-administration SEQ ID NO:42 retained 15.3% of maximal activity, while WT GLA retained only 0.66% (See, FIG. 9).

Molecule | increase of Tm of the enzyme [1] [°C] | conversion of NBD-GB3 [2] | stability (residual activity) under acid and basic challenge compared to WT GLA [3] | melting temperature [4] [°C] | GLA activity retained in serum, % of maximal activity [5] [%]
B1 | 4 | Significant conversion |  |  | 
B2 |  |  | considerably more stable | 55 | 15.3
